This is an account of results in US20240239915A1.

Experiment in all cases: SPR (Biacore T200); receptor immobilized directly on CM5 chip, antibody as analyte at 4.7 µM
(In general: In SPR one partner is held on a chip, and binding of the other changes the refractive index at the surface.)

Assay [1] addresses Recombinant Human Fc gamma RIIA/CD32a (R167) Protein (R&D Systems), His-tagged (human) (UniProt P12318).
The target in assay [2] is Recombinant Human Fc gamma RIIB/C (CD32b/c) Protein (R&D Systems), His-tagged (human) (UniProt P31994).
Sequence of Recombinant Human Fc gamma RIIB/C (CD32b/c) Protein (R&D Systems), His-tagged (human) (P31994 other isoform, or with tags, fused parts or gaps): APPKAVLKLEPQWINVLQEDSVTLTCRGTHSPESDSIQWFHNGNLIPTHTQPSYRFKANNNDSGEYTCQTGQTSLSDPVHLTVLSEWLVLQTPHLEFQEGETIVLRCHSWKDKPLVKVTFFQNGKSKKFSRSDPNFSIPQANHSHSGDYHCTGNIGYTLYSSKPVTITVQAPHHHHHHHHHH
Assay [3] has as its target Recombinant Human Fc gamma RIIIA/CD16a protein (R&D Systems), His-tagged (human) (UniProt P08637).
Assay [4] concerns the target Recombinant Human Fc gamma RIIIB/CD16b Protein (R&D Systems), His-tagged (human) (UniProt O75015).

Sequence of Recombinant Human Fc gamma RIIA/CD32a (R167) Protein (R&D Systems), His-tagged (human) (P12318 other isoform, or with tags, fused parts or gaps): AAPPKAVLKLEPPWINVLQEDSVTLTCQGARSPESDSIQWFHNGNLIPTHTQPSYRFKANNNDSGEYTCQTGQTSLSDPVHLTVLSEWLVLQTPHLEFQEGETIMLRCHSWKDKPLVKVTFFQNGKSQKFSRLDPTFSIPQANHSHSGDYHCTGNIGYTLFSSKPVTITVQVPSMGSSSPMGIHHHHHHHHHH
Sequence of Recombinant Human Fc gamma RIIIB/CD16b Protein (R&D Systems), His-tagged (human) (O75015 other isoform, or with tags, fused parts or gaps): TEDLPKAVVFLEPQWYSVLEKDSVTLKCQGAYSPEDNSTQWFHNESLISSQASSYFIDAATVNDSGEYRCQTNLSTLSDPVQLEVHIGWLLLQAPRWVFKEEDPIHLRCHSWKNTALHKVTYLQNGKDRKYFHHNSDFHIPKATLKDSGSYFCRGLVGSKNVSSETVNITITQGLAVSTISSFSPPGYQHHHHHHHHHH
Sequence of Recombinant Human Fc gamma RIIIA/CD16a protein (R&D Systems), His-tagged (human) (P08637 other isoform, or with tags, fused parts or gaps): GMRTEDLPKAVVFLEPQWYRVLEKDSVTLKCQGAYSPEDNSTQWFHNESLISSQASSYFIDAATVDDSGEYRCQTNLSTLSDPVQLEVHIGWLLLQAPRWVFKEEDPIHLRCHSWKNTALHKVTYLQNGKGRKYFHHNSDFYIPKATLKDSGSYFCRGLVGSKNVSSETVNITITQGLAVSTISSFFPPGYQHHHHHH

Turning to “LALA-DG variant of the anti-CD70 antibody vorsetuzumab (IgG1)”, the binding response (RU) in assay [1] came out at 8.3 RU.

Regarding “LALA variant of the anti-CD70 antibody vorsetuzumab (IgG1)”, the binding response (RU) stood at 64 RU in assay [1], 18 RU in assay [2], 100 RU in assay [3] and 4.5 RU in assay [4].
